Target: T1, Sorting nexin 4 (SNX4), endogenous (human (endogenous in HEK293), UniProt O95219 1-450)
T1 construct: SNX4, endogenous in HEK293 cells, precipitated with anti-SNX4 (E-18); source: endogenous, HEK293 lysate
T1 sequence (looked up): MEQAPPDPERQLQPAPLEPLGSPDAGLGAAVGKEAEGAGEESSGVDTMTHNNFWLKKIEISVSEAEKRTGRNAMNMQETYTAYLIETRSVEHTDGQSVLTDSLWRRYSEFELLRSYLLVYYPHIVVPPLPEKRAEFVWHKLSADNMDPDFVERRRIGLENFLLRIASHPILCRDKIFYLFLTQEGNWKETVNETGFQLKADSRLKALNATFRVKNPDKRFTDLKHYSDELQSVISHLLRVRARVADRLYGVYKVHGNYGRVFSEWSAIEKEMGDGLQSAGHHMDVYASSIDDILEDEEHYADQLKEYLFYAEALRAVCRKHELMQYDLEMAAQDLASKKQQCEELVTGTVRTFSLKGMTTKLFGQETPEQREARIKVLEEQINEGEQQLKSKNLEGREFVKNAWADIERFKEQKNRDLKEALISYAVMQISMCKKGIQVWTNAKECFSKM
Test: co-IP; anti-SNX4 (E-18) on Protein A Sepharose, HEK293 lysate (0.1 M NaCl, 10 mM Na2HPO4 pH 7.4, 1 mM EDTA, 1% Triton X-100), overnight at 4°C, Western blot; cells untreated, or transfected with control, SNX4 or CHC siRNA, or treated with nocodazole for 30 min
Details: partners not purified

fold change of CHC binding to SNX4, nocodazole-treated against untreated cells: 2.3 fold
B1: clathrin heavy chain (CHC), endogenous (natural protein, human (endogenous in HEK293), UniProt Q00610 1-1675, looked up)
chain: MAQILPIRFQEHLQLQNLGINPANIGFSTLTMESDKFICIREKVGEQAQVVIIDMNDPSNPIRRPISADSAIMNPASKVIALKAGKTLQIFNIEMKSKMKAHTMTDDVTFWKWISLNTVALVTDNAVYHWSMEGESQPVKMFDRHSSLAGCQIINYRTDAKQKWLLLTGISAQQNRVVGAMQLYSVDRKVSQPIEGHAASFAQFKMEGNAEESTLFCFAVRGQAGGKLHIIEVGTPPTGNQPFPKKAVDVFFPPEAQNDFPVAMQISEKHDVVFLITKYGYIHLYDLETGTCIYMNRISGETIFVTAPHEATAGIIGVNRKGQVLSVCVEEENIIPYITNVLQNPDLALRMAVRNNLAGAEELFARKFNALFAQGNYSEAAKVAANAPKGILRTPDTIRRFQSVPAQPGQTSPLLQYFGILLDQGQLNKYESLELCRPVLQQGRKQLLEKWLKEDKLECSEELGDLVKSVDPTLALSVYLRANVPNKVIQCFAETGQVQKIVLYAKKVGYTPDWIFLLRNVMRISPDQGQQFAQMLVQDEEPLADITQIVDVFMEYNLIQQCTAFLLDALKNNRPSEGPLQTRLLEMNLMHAPQVADAILGNQMFTHYDRAHIAQLCEKAGLLQRALEHFTDLYDIKRAVVHTHLLNPEWLVNYFGSLSVEDSLECLRAMLSANIRQNLQICVQVASKYHEQLSTQSLIELFESFKSFEGLFYFLGSIVNFSQDPDVHFKYIQAACKTGQIKEVERICRESNCYDPERVKNFLKEAKLTDQLPLIIVCDRFDFVHDLVLYLYRNNLQKYIEIYVQKVNPSRLPVVIGGLLDVDCSEDVIKNLILVVRGQFSTDELVAEVEKRNRLKLLLPWLEARIHEGCEEPATHNALAKIYIDSNNNPERFLRENPYYDSRVVGKYCEKRDPHLACVAYERGQCDLELINVCNENSLFKSLSRYLVRRKDPELWGSVLLESNPYRRPLIDQVVQTALSETQDPEEVSVTVKAFMTADLPNELIELLEKIVLDNSVFSEHRNLQNLLILTAIKADRTRVMEYINRLDNYDAPDIANIAISNELFEEAFAIFRKFDVNTSAVQVLIEHIGNLDRAYEFAERCNEPAVWSQLAKAQLQKGMVKEAIDSYIKADDPSSYMEVVQAANTSGNWEELVKYLQMARKKARESYVETELIFALAKTNRLAELEEFINGPNNAHIQQVGDRCYDEKMYDAAKLLYNNVSNFGRLASTLVHLGEYQAAVDGARKANSTRTWKEVCFACVDGKEFRLAQMCGLHIVVHADELEELINYYQDRGYFEELITMLEAALGLERAHMGMFTELAILYSKFKPQKMREHLELFWSRVNIPKVLRAAEQAHLWAELVFLYDKYEEYDNAIITMMNHPTDAWKEGQFKDIITKVANVELYYRAIQFYLEFKPLLLNDLLMVLSPRLDHTRAVNYFSKVKQLPLVKPYLRSVQNHNNKSVNESLNNLFITEEDYQALRTSIDAYDNFDNISLAQRLEKHELIEFRRIAAYLFKGNNRWKQSVELCKKDSLYKDAMQYASESKDTELAEELLQWFLQEEKRECFGACLFTCYDLLRPDVVLETAWRHNIMDFAMPYFIQVMKEYLTKVDKLDASESLRKEEEQATETQPIVYGQPQLMLTAGPSVAVPPQAPFGYGYTAPPYGQPQPGFGYSM
notes: clathrin heavy chain, endogenous in HEK293 cells, detected with anti-CHC; source: endogenous, HEK293 lysate

From article PMC2691479, “SNX4 in Complex with Clathrin and Dynein: Implications for Endosome Movement” (PLoS ONE, 2009)
